For orientation: IC50 means the concentration at which inhibition is half-maximal. The Km is the concentration of substrate that gives half-maximal velocity. In general, Vmax refers to the top rate of the reaction or transport when substrate is in excess.

The target of series [1] is T1, AgEH (epoxide hydrolase from Anopheles gambiae) (Anopheles gambiae, UniProt Q7PZL6).
T1 sequence (Q7PZL6 1-340): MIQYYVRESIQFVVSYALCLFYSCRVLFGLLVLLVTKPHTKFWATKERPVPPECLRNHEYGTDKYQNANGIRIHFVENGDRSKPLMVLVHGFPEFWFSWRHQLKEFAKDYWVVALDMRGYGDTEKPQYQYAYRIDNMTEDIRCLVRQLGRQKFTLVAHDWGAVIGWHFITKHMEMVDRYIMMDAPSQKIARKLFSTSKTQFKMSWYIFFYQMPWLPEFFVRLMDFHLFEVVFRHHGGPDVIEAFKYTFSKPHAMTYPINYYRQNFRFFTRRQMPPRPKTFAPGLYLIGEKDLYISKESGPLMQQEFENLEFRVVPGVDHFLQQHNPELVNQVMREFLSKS
Put plainly: % activity remaining on t-DPPO, recombinant AgEH in Sf-9 microsomes. The class given is cell-based. The conditions noted are these: read-out: t-DPPO / 500nM.

Series [2] deals with T1, AgEH (epoxide hydrolase from Anopheles gambiae). Put plainly: inhibition of […],15-EET hydrolysis by recombinant AgEH in Sf-9 microsomes. The class given is biochemical.
Substrate in series [3]: COC(=O)/C=C(\C)CC/C=C(\C)CC[C@H]1OC1(C)C
It counts as biochemical, Anopheles gambiae.

Substrate in series [4]: c1ccc(C[C@@H]2O[C@H]2c2ccccc2)cc1
It counts as biochemical, Anopheles gambiae.

Substrate in series [5]: CCCCC/C=C\CC1OC1CCCCCCCC(=O)O
Put plainly: Michaelis-Menten kinetics, LC-MS/MS, recombinant AgEH in Sf-9 microsomes. The class given is biochemical, Anopheles gambiae.

Substrate in series [6]: CCCCCC1OC1C/C=C\C/C=C\C/C=C\CCCC(=O)O
The description is as above. It counts as biochemical, Anopheles gambiae.

For `O=C(Nc1ccc(OC(F)(F)F)cc1)N[C@H]1CC[C@H](Oc2ccc(C(=O)O)cc2)CC1` [compound 2, trans-4-{4-[3-(4-trifluoromethoxy-phenyl)-ureido]-cyclohexyloxy}-benzoic acid], the activity at 0.5 µM in series [1] was found to be 12.5%.
Turning to `O=C(O)CCCCCCCCCCCNC(=O)NC12CC3CC(CC(C3)C1)C2` [compound 1, 12-(3-adamantan-1-yl-ureido) dodecanoic acid], the IC50 in series [2] is about 60 nM.

B1: AgEH (epoxide hydrolase from Anopheles gambiae) (Anopheles gambiae) (protein)
chain: MIQYYVRESIQFVVSYALCLFYSCRVLFGLLVLLVTKPHTKFWATKERPVPPECLRNHEYGTDKYQNANGIRIHFVENGDRSKPLMVLVHGFPEFWFSWRHQLKEFAKDYWVVALDMRGYGDTEKPQYQYAYRIDNMTEDIRCLVRQLGRQKFTLVAHDWGAVIGWHFITKHMEMVDRYIMMDAPSQKIARKLFSTSKTQFKMSWYIFFYQMPWLPEFFVRLMDFHLFEVVFRHHGGPDVIEAFKYTFSKPHAMTYPINYYRQNFRFFTRRQMPPRPKTFAPGLYLIGEKDLYISKESGPLMQQEFENLEFRVVPGVDHFLQQHNPELVNQVMREFLSKS
On to B1, for which the Km turned out to be 9.8 ± 2.0 µM in series [3], 30.5 ± 5.0 µM in series [4], 7.0 ± 0.6 µM in series [5] and 3.0 ± 0.3 µM in series [6]. Also, the maximum rate (Vmax) in series [3] is 1.3 µmol/min/mg; in series [4] it was 1.2 µmol/min/mg; in series [5], 1.5 µmol/min/mg; in series [6], 1.4 µmol/min/mg. Besides, the Vmax/Km in series [3] amounted to 130000 µL/min/mg; in series [4] it was 41000 µL/min/mg; in series [5], 210000 µL/min/mg; in series [6], 460000 µL/min/mg.
